From PMC9262588
No end group written: not given here.

Biological target: T1, FAM-tat peptide (UniProt P04608, also: FAM label, position not given here)
T1 chain: AAARKKRRQRRRAAA
Assay: SPR

GGCAGAUCUGAGCCUGGGAGCUCUCUGCC (structured_RNA) [biotin-TAR RNA]
Kd: 380 nM
